Laboratory results as given in patent publication US12441811B2, “Compositions and methods for treating serpin B13 disorders” (REGENTS OF THE UNIVERSITY OF MINNESOTA, priority 2019, dated 2025).

How the values were obtained:
[1] = tested on: pancreatic islets and β-cells; experiment: Follow-up of healthy offspring with gestational exposure to anti-serpinB13 mAb; format: in vivo, mouse; conditions: for β-cell mass per animal (islet mass): offspring
Description: The control mouse mAb (clone TIB92) was from ATCC (Manassas, VA, USA). The recombinant human control Ab (cat. No 403502) was from BioLegend (San Diego, CA). In most of the experiments, anti-serpinB13 mAb (clone B29) or control mouse mAb was injected i.p. into pregnant female mice at 50 μg for four consecutive days, starting at gestational day E10.5 (total dose of 200 μg). In the lineage tracing experiments in adult mice, B29 was injected i.p. for 7 days at 100 μg/injection during the first week after STZ treatment (total dose of 700 μg).
Preparation of the islets and single islet-cell suspensions. The adult pancreases were subjected to digestion with collagenase P and passed through the 100-μm strainers to separate the islets from debris. The blindly digested pancreatic samples were manually counted for the number of pancreatic islets under a dissecting microscope with a warm halogen light from below. The islets were defined as any visible, distinct cluster of cells with smooth edges and light- to dark-brown glowing color and diameter greater than 100 μm. The hand-picked islets were then dispersed with CellStripper (cat. no. 25-056-CI; Corning, Corning, NY). The cells were fixed and permeabilized, using the Foxp3/Transcription Factor Staining Buffer Set to permit intracellular staining.
Calculation of the islet mass. In embryos, the β-cell mass was expressed as the percentage of the area of all pancreatic sections combined, that positively stained with anti-insulin antibody. To calculate β-cell mass in adult mice, the percentage insulin-positive area was multiplied by the pancreas weight expressed in milligrams.
Estimating the number of islets and islet cells. The islets were manually counted under a dissecting microscope. To estimate the number of α and β cells, the islet cells were dispersed, intracellularly stained with antibodies to […], respectively, and their counts measured by FACS.

catL [2] = experiment: catL activity in vivo with activity-based probe ProSense 680; design: species or system mouse
Description: CatL has been implicated as a serpinB13 protease target. To examine the consequences of inhibiting serpinB13 using a mAb (clone B29), the catalytic activity of catL was measured. […] To measure catL activity in vivo, the activity-based probe, ProSense 680, was used. […] This increase was limited to the pancreas in wild-type Balb/c mice and was not observed in the liver, where serpinB13 is not expressed, or in the pancreas of catL-deficient Balb/c mice.

pancreatic islets = conditions: cited from earlier work
Notch1 receptor = experiment: Examination of Notch1 receptor in embryonic pancreas (Western blot, flow cytometry, qPCR); format: cell-based, mouse; conditions: for levels of active Notch intracellular domain (aNICD): embryonic pancreas, antibody vs control Ab
Description: Staining for flow cytometry. BD LSRFortessa X-20, LSR-II and FACSCanto-II were used for FACS analysis. Positive populations of cells were gated and counted using FlowJo ver.10 software. For the islet cells isolated from adult mice, intracellular staining to detect glucagon and insulin was used to count single-positive as well as double-negative cells. In the cells isolated from embryonic pancreas explants, intracellular staining was performed to detect Ngn3, CK19, and active Notch, and extracellular staining was used to detect the extracellular Notch domain, EpCAM, CD31 and CD45.
Western blotting. Pancreatic tissues were processed from E16.5 embryos as single samples and directly used for lysis. Embryonic pancreas explants from E12.5 embryos were cultured in vitro with anti-serpinB13 mAb (or control Ab) for 24 or 48 hours, then, three explant cultures were combined and lysed. The samples were washed two times in ice-cold PBS and lysed with gentle pipetting for 10 minutes with additional tap-vortexing for 15 minutes in RIPA buffer containing Halt protease inhibitors (cat. no. 1862209, Thermo Fisher Scientific). Equal amounts of protein in each sample were run under reducing conditions on Bis-Tris BOLT gradient gel (4-12%) or NUPAGE Tris-acetate gradient gels (4-12%) (both from Thermo Fisher Scientific), and transferred onto […] nitrocellulose or activated PVDF membranes. The membranes were blocked with 5% skim milk and stained with primary and secondary antibodies, as indicated. The Western blots were developed with SuperSignal West Pico Chemiluminescent Substrate or West Femto Maximum Sensitivity Substrate (cat. nos. […] and […], respectively; both from Thermo Scientific), and scanned using the ChemiDoc™ MP Imaging System (Bio-Rad, Hercules, […], USA).
Quantitative real-time PCR. Total RNA from embryonic pancreases was extracted using the RNeasy UCP Micro kit (cat. no. 73934; Qiagen, Hilden, Germany) to measure expression of the Notch1 gene. One hundred to […] of the total RNA per group was reverse transcribed to cDNA using the iScript cDNA Synthesis Kit (cat. no. 1708891; Bio-Rad). Quantitative PCR assays were performed on an Applied Biosystems QuantStudio 3 real-time PCR system using cDNA and the Kapa Sybr Fast reagent (cat. no. 0795959100; Roche). Actin-R was used as a reference gene. The primer sequence for Notch1 was as follows: forward—5′[…]3′ and reverse—5′ […]3′.

catL [3] = conditions: previously shown by the applicant; cited from earlier work
[4] = 8-week old offspring, prenatal exposure

B1: B29: mouse monoclonal antibody to serpin B13, clone B29; heavy chain SEQ ID NO:14, kappa light chain SEQ ID NO:16 (antibody, V domains shown)
VH: QIQLVQSGPELKKPGETVKISCKASGYTFTTYGMSWVKQAPGKGLKWMGWINTYSGMPTYADDFKGRFAFSLETSATTAYLQINNLKNEDTATYFCARPLLGLDYWGQGTTLTVSS
VL: DIVMTQTPLSLSVTIGQPASISCKSSQSLLHSDGKTFLNWFLQRPGQSPKLLIYLVSKLESGIPDRFSGSGSGTDFTLKISRVEVEDLGVYYCLQHTHFPLTFGAGTKLEIK
number of pancreatic islets [1, 4]: significant increase | total β-cell number [1, 4]: significant increase | α-cell population [1, 4]: significantly increased | total pancreas and body weight ([1]; at birth and in adulthood, vs control group): remained the same | β-cell mass per animal (islet mass) ([1]; prenatal exposure, listed as anti-serpinB13 antibody): increased | β-cell mass per animal (islet mass) ([1]; prenatal exposure, listed as anti-serpinB13 mAb): significant increase | β-cell mass per animal (islet mass) ([1]; prenatal exposure, listed as mAb): significant expansion | increase in catL activity in the pancreas of catL-deficient mice (catL [2]; catL-deficient Balb/c mice): not observed | increase in catL activity in the liver (catL [2]; liver, where serpinB13 is not expressed): not observed | catL activity (catL [2]; summary statement, setting not specified): augmented | catL activity in the intact pancreas (catL [2]; wild-type Balb/c mice, after injection of mAb, ProSense 680): significant increase | recovery from diabetes (pancreatic islets; coadministration with a suboptimal dose of anti-CD3 mAb): accelerated | Reg gene expression (pancreatic islets; injection): enhanced | beta cell mass (pancreatic islets; injection): increase | beta cell proliferation (pancreatic islets; injection): enhanced | generation of pancreatic islets (pancreatic islets; injection): ~80 pancreatic islets per animal | islet inflammation (pancreatic islets; mice, mAb alone): decreased | ~60 kD degradation fragments of Notch1 (Notch1 receptor; E12.5 explants treated 48 hours): induction | levels of active Notch intracellular domain (aNICD) (Notch1 receptor): diminished | levels of active Notch intracellular domain (aNICD) (Notch1 receptor; listed as mAb): markedly reduced levels | expression of the ectodomain of the Notch1 receptor (Notch1 receptor; embryonic pancreatic tissue, in vivo and in vitro exposure, 24 and 48 hours): time-dependent reduced expression | transcriptional level of Notch1 (Notch1 receptor; quantitative PCR): relatively intact | inhibitory properties of serpinB13 (catL [3]): blocked
